Assay results as given in the NTF2 design screens of Basanta et al. (2020).

Test: protease stability score; higher = more stable; yeast display proteolysis, trypsin and chymotrypsin;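 note: log10 excess protease needed over predicted unfolded state with 0 meaning unfolded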

“DEHLNRHLSTVLNILQEGDPKKLLQQFDPNAHFQIGDTHVHGREQMDQQMERERRRARTEVKDYKVDDQGEQLVLHMTFRVDRNGKPKEMQATIKAEVHNGHFKEMKFETDR” gave a protease stability score of -0.089.
For “DERALRNWRRLETAVNTNNPDKVQKLMDKDVKYEVGDKTIRGRRHAAQSLVERVNKIHLDIKSVTATDSGDNVRIRLDAVRNHNGRPHRDVLNITVKADNGKIVSVKTTKDG”, the protease stability score was 0.001.
For “DSEKNEALQRAVEIWNSNDPDKLKKQFDPNARHTYGDTVVHGRENLARRLEQLKRESRLTFQVTHLDVHNGKVTADVTIVEEHNGKPDTKRMDVQANVQNGRFKSVYVHESS”, the protease stability score was -0.003.
For “ETHVINRAIEAARHGDEDTLSKLADENAHVSVGDKEFHGREQVKNALKDWHDQVDTFEMKKVEVRGNKADVKIKVVVNGRDMTMRMEINAKGESIREINFSYRDERAKHHAQNAQG”, the protease stability score was 0.169.
Work on “DDRQQRVMEKILTAVQKGDEKKVKDQMDPNVKVHVGEFHYQGEEQLEKTLRHRTKELEIEYREITFRVDNGNVHVDVKAQLNNNGKPQQFTQHFSAEVDGDRVKTVHVEVKQ” yielded a protease stability score of -0.533.
In the case of “DSTQVRILEEMNRAIERGDPERVYQLADPNARFQIGDTQIHGMESFMKHVEETVRHMRISIRSLHADDEGDKMKVTFTFVVNRDGQPRRRVVTATAHANGDQVKYLEWRDDE”, the protease stability score is reported as 0.477.
For “DEHDAESIQSVLTNGNFESMDELADKDVHVDVGNKRYHGQEQFRTLQTHYKNRVDHVDMHRLTQDGEKINADMRAVVNGKDFQFELVIKVHNGRIRRLQLNFTSDSQDKEHEERLR”, the protease stability score was 0.496.
In the case of “DDRQMDHFAHQFERNNPDEYRKMLDPNARAEYGDKDYSGREQVQTLADTLHKQFDHLEVKDYRFNNGRAEFRYEAKFNGKTLTMKMVAEVKNGHIKHVVFRVTDPRQRKDLQREFG”, the protease stability score is reported as 0.156.
Sequence “DEEKVKRLLKRVAEDYVSGDAETVRKLGKDDAELEVGNTTYHGKEQMYKVVEEFKKYGVRLQVRNAEVRGNKVTMEVDLDMGGDTWKFTVHVEADGGKADKVKIDVSEEVKKRIEHG” has a protease stability score of 0.291.
Work on “DDTRKAKELADRIVKAIKHGDEEYYERLVDKDVHADVGDRTVRGSETLVNTFQHEVEKADHIDAKVRSVSAHNGKIHISITVVVDVNGQQNSKEYTVIANTSNGRVRVEQINFK” yielded a protease stability score of 0.454.
For “DEEKDEDVARQVAHAAATGDTKRLVELMRDNVRFQIGDKTFSGRENLSKAMERIDKHVDHLEVKSIEAHGDTVRADVTMTVNGKTHVVKIEAVVHNGHARELVLHDR”, the protease stability score was 0.06.
In the case of “DKEKEAKKAIDKMITAIQHNDEDRAREMADPNVRIKYGDKQYHGRETMEDWIRTLRNSYDHLDIKLTDMKTDGDKIHIIIQYEADHNGQRTRDRVDLTMRRDNGRVKLVSAKEQ”, the protease stability score is reported as 0.232.
For “DEEAKEVLERWHTAIKHGDPNLAKEMADKDVRINVGDKSFSGMEQNAKDMHRERNELEYEILSVRFEVHGDKVKVEFHATRNNNGNPDTKKFDLTATASNGKATRVTLQSSG”, the protease stability score was -0.538.
“DEDASRRMIEMVENLQTGNEEEFKKYVDPNVRIEYGDKRVSGRDQATKWWRSEFTEIRFSMRVQSYSVDGNKVDITVRATFDHNGKPEDKKYKLDIQLHNGHIKKLEITDDS” gave a protease stability score of 1.31.
For “DSERAKEVVKEFEHNDRQKFRDLFDEDASVTIGNRTYHGRHEVERALKRHIDRVDHVKINSVQIRGERIHMEAVFNINGQEFTLQMTLQLSNGKVKTWVLRVTDPDLKRKLHKNME”, the protease stability score was 1.15.
In the case of “DDEEHRRILERFVRAFQTGDEDDLRNLADPNAKAQVGDKQVHGMDKFATHIRELVDRIDHIDVKSLTASGNTLHARIKFRVNGHDVTVVMRIQVHNGKLKRIEIDPEVVRQIEG”, the protease stability score is reported as 1.22.
Sequence “EEESHQVAENIARILQTNDPRRLAELMDENARVRVGDTQLSGREDIEKQMDKEMKEIRVEIKNYEIDAKGEKIDIDVDQVFVHNGKPDRQRVKYDFDLRNGQIKRASVSVHK” has a protease stability score of -0.188.
Sequence “DQDALRKWEEILKAMETGDREKVAQLVDPNARVVYGDKEVRGRESIRKRVKEIRDELRFSMELKRFDDHNGRASATLKMNAEHNGQPIHRTASVEIEVQNGRIKSMEIQLRG” has a protease stability score of 0.062.
“DDDEMHKLVEHAIKAWETGDHKKAMDLIDPNAKVDVGDREIHGREEFSHHVREINKKVDRVDVQDYKVRGNKAQVRMQFNVNGQTVVVNLVFVMSNGRLSRVQIDVTDPDKFRSAQS” gave a protease stability score of 0.138.
“DHELVEQLHRFWTAVDENDPDKLKENADPNAHFVIGDKTYRGREDFARTIERELDTMEMRFDTMTVTIHNGRLDAKFRYVVRHNGNPQQHKVDAKAEMSNGKIQRLNMQKRP” showed a protease stability score of -0.197.
In the case of “DDHVLREVMKSWKDNDWKTLQDQVDPNARMKVGDNKVSGREQIEDLLQHLQDRIDHVEIKSMQHQGDKANFRFQFVVNGQRVDVVARVKAHNGKIQEWQVEVRNDELKEQLERAQK”, the protease stability score is reported as 0.628.
Work on “DEEKLAENFLETMQNIAREGDEEKMADLFDPNAEIQVGDKSYQGREDVLELNRREFERYDHVRIDVKRFSVKNGQLDAEMSVTFSVNGKTDSHDQRLRATLHNGRLKAKHRTNG” yielded a protease stability score of 0.476.
For “DEEAERIAEEFIRAQQTGDKDRLRKLMDPNARANVGDKRYHGMERWAKDVARTMHEQRVEIKDLKISVQGNKADVHIDLVVDHNGQPRRFDMRLDFRFNNGTIKEVSYDDKR”, the protease stability score was 0.391.
Work on “DEEDEARTMADRIRHALENGDEQKFAEQADPNASVRIGDRTWHGRRQISNRLKEERERADHVELEIKSIKLHGDRVKIDFVLEQDINGRHETTQLTMTAELHNGNVRFKMMKEK” yielded a protease stability score of -0.332.
“DEEEQHKRAREYMQMFEDNDEKNLMHMADENARLVVGDKTYRGKEELSKQVREQKKRVDHNQVHSVRLHNGRVVIDVTLHHNGHREKRIIRVQLRNGRIKSIVYESG” showed a protease stability score of 0.037.
In the case of “DSDLVRKMKKFEENRRTGNEHEVDKMIDPNAKLQVGDKTIHGRERQRDYMRELKNSARLDLKIDRVHDQPGRVVATFILKVNINGRPDTIRVKLVIQWHNGEIQRAELRVPEEWMDRFKQ”, the protease stability score is reported as 0.642.
“DEHAIKLLKKIYEAWEEGDPDEARENADPNARYIIGDKTLHGMENIVKEWQRRYDESRIDYKHIDVQDDNGRANADVRYVVQHNGRPERKTMTVIVEVHNGRVTQIHFQDTQ” showed a protease stability score of -0.01.
Sequence “DESEHAKRVADKFRTAAKNGDPDQFTQLADPNAKIDIGDKDVSGRERLSEVVNELNKRIDHLEVKVRSVTQRGNHLVVKADVDAEHNGQEIRRKVDIVLRNNNGRVNLEMIRYR” has a protease stability score of 1.03.
“DEENQKQIKKIWHAWEKGDEQKAQDMVDPNVNIQVGDKHISGQDSLREDLRRKRHEMRVRVRFHDINIDENHISVKIEVLNEKNGRPSTKVVVFEATVHNGKIKSMEFRDDD” showed a protease stability score of 0.494.
In the case of “DDDRVETVAQELAEAIMENDEDRAREMVDPNARIVYGEKDLHGREAFHTVMQLFQHRVDRVDLETVSVHNGRVKFEAVLKHNGTEHRVVFIVDAHNGKAKQVEVRDQ”, the protease stability score is reported as 0.862.
With “DKKQVHDVARTLVQYYVSGNSERVKQLGKEDVELHAGDRTYHGVDQMAKVVEQFKKYGVELEVKDVKVDGNRVTARVQFHKAGTTWEFKVDVQADGGKVDQVRVNVTEEAIKHIQHG” the protease stability score was 0.797.
Work on “EEELLQRATEFLHAQETNDPKRLKEQADPNARFRVGDKTIHGMDEYVRQLEQTEREMKVSLEIKHVTLTGDKADVEAEVTKDRNGRPDRFRVRYEFEARNGKFVDVRIQEDR” yielded a protease stability score of 0.336.
In the case of “DEEEQQKNAETADRNVKTGNWEEIKKMVDKDARVKIGDTTLHGREDVSREFKRWREDADHVEMKRVSASNGRAVVEVEYTVNGRKKKFTMIMEMHNGRIKHFRNERS”, the protease stability score is reported as 0.251.
Work on “DEDLKKRFKRMLRNLQNNNEENAHELMDPNARWRYGDKVLHGHEQLIEEWKRIHDRMRVEYKSVEVTASGDKVVVEIVFTRHKNGSPDSDNTRWKAVYNNGKLKDMMVTEDG” yielded a protease stability score of 0.637.
Work on “DDEEMTQLLRRILKALEKNDEDLYNQNFDEDVKINVGDKRYNGREDASKLMKTWNKQIDHFQVNDYTVSGEQLEMNITFQVDGRNVSFNVTATAKNGRVKEQTFDPSAMRKARS” yielded a protease stability score of -0.077.
Sequence “DRRQEARDIQHDQNRALKHGDQESAQRLFDENARIKIGDRQWHGSDDVMTEVREQHKKVDSIRIHVVSIDVRGDQYDINVQYNLHYDGDNDTFRATQRLKKHNGSVRVVDQHEQ” has a protease stability score of -0.276.
Sequence “DDEELQELVKVIQDNDKDRWRENIDKDARVRYGDKQWEGRNEVDKLMRELLEKADHIQFNSIHVQGNSIVVDVNINVNGKELDVIIEMEVRDGRIKHVKFQWRNEELHRIMDEILS” has a protease stability score of 0.879.
“DSNALSRAMEYLRVVEQGDPKRAKQLFDPNARFIYGDRTVHGKDRIADMLRHERDDMRLQIDDLKTTVQGDKVVVRYKAVRERNGHPETFRAEFRVEFNNGKIEQQNYQVHK” gave a protease stability score of 0.25.
With “DDEEHVEEMMRRQQNNYKHGDFEELARQFDPNATVNVGDKTYHGREQIRDWYRKRKEDVDSMDLQVQHFSVDNGRIRIQATERQHFNGQDDSTHFQAEARKHGDKAKLKHFRQQ” the protease stability score was -0.052.
Sequence “DEDEDIRSWMKQFEEVVKTGDSKHAADMFDKNAKMQYGDKTYHGRDDVKSVLDHLLRRADHVRLELLDVKSNGESVHAVMLITFVVDGQTDSYHVELVFVVDNGRRNLHTATTK” has a protease stability score of 0.872.
With “DEDQNTVFEEVKKAIRTGDEEMLKTLMDPNVRLEYGDTEIHGREEAVRQISTRHNQLHVDEQIKDIKAHNGKVDVDFEVHRSHNGDPQHRRASARADVSNGSVKELVVKYDK” the protease stability score was 0.014.
Work on “DEENRQLAENFLTAMEDNNPEHLSELADPNAKFHYGNKRIHGREKFMHEVEHRNKRIRYSIKSYKITVSGDKIEIDLTFTFRHNGQPDERRRTIHMQMENGQIRSVEYNDNK” yielded a protease stability score of 0.337.
In the case of “DEEKNFREWLHKFNEANESNDEEELKHQMDKNAHVTYGDKTIHGRDTVAEHLANKNRRADNIEFRIRHVSVENGQLQFRIDWNLRHNGENDRFEIKVRADVHNGNVQLQEASVD”, the protease stability score is reported as 0.134.
“DEELLELVRRWITAVRTNDPKQLEKNFDPNAKFEYGDKSVRGKEQVVREQEKQVQEIRFSYRISDFRVDNGRVEMEVKVHEKHNGRPDTKTVKWKAEMSNGRLVWMRMQKRQ” gave a protease stability score of 0.412.
Sequence “DESLQHMAEEMLEVWQTGDKERAATMMDKDARVRVGDHTVRGRESLQKNIETEKEQMRVQIRHVDARVHNGRVDVKVEVELDHNGKPQRVVYNIDFRAHNGRVQEIHIQEDG” has a protease stability score of -0.181.
In the case of “DEQERAERLMEEMVRVLHTGDEKRLQQLADPNARFTIGDTRVHGSDEFARLLREHADNADSMQFRVKSIEVEGNHINIKFSFSVDINGRTESYTANIRIVEKGDKMQFHTQDMK”, the protease stability score is reported as 0.402.
With “EQEVVHLAHRFIEAVQHNSTEDANKNVDPNAKFRVGDHVVNGREEVNEKVRKDHEKIRLQIRSVTLEDQGDKVEIRMDVEFDVNGKPLHHNLKMTVEAHNGKIVQLDNQMDPTELKELKQ” the protease stability score was -0.152.
“DENETAKDILKELVDILKNGDEDSFARMFDENARITVGDKTYTGRDEVRKYASQIHRRVDHIDVKLKSVTTNNGRIEVSARFVFQVDGKEDDRIFRLVVRKKGDKWVIERQSLE” showed a protease stability score of 1.64.
“DEDRQQTLADELVKALEKGDFEKIEKLADPNVRVEIGDRHVRGREQASKELKKYTDRVDEVRIDSLEVQGEKVSADFRFNVDGHTIRLTAEITFHNGRIKMMRFHFTNEDQERRYKS” showed a protease stability score of 1.02.
“DDDAVRRMKEFEEAKQHGDPDELRRLADPNVRLEYGDKEIHGRDTMAQTLKNEVDEIRMEVDFRHFTSQGDKVSIQAEQSRDNNGQPQSVKAQFDARFHNGRLKHLRVQLDG” gave a protease stability score of 0.114.
